Laboratory results from patent publication US20230287433, “APTAMERS FOR PERSONAL HEALTH CARE APPLICATIONS” (The Procter & Gamble Company, published 2023).

What was measured:
[1] = target: T1, ICAM-1 extracellular domain (C-terminal His) (Homo sapiens, UniProt P05362 SEQ:1-453); assay: ITC; 37 C, potassium phosphate; 1.27 nM at 33 C (tighter); conditions: tags: C-terminal His6; Ray-Biotech 228-21751-2
Procedure: (§1) Aptamers as disclosed herein were selected to perform at 37° C. in the SELEX selection process. Further, all experiments relating to performance of aptamers executed on cells grown in culture were performed at 37° C. as well, as this was the appropriate temperature for optimal cell growth and corresponds to body temperature. However, the aptamers are intended to function on the inner surface of the nasal cavity in vivo and said nasal cells show a slightly lower average temperature of 33° C. As such it was important to ensure that the aptamers of the present invention perform at both temperatures. Accordingly, binding analysis was executed using isothermal titration calorimetry (ITC) using Nano ITC (Low Volume of TA Instruments) and following user instructions for the NasD-4.1 aptamer (SEQ ID NO: 244) at 37° C. as well as at 33° C. Specific mutations in sequence (SEQ ID NO: 264-270) were tested to analyze the impact of temperature and secondary structure. 600 nM concentration of the NasD-4.1 aptamer was injected in 11 injections of 4.88 uL each into a 100 nM concentration of ICAM-1 receptor protein in a volume of 193 uL. The same concentration of mutant aptamer was injected into buffer, as well as buffer was injected into the same amount of protein as controls. The ITC experiments were performed at 33° C. and 37° C. in potassium phosphate buffer.

[2] = target: T1, ICAM-1 extracellular domain (C-terminal …); assay: ITC; 37 C, potassium phosphate; 18.1 nM at 33 C; conditions: tags: C-terminal His6; Ray-Biotech 228-21751-2
Procedure: as §1

[3] = target: T1, ICAM-1 extracellular domain (C-terminal …); assay: ITC; 37 C, potassium phosphate; 9.09 nM at 33 C; conditions: tags: C-terminal His6; Ray-Biotech 228-21751-2
Procedure: as §1

[4] = target: T1, ICAM-1 extracellular domain (C-terminal …); assay: ITC; 37 C, potassium phosphate; 14.3 nM at 33 C; conditions: tags: C-terminal His6; Ray-Biotech 228-21751-2
Procedure: as §1

ICAM-1 (on cells) [5] = target: T2, ICAM-1 (on cells) (Homo sapiens, UniProt P05362 SEQ:28-532); assay: HNEpC cells, 2 h, 500 nM; RH-30 below 500 RFU; conditions: tags: endogenous on HNEpC (PromoCell C-21060) or H1-HeLa cells; label: FAM in cell assay; hairpin with dangling 5' and 3' ends
T2 sequence (P05362 28-532): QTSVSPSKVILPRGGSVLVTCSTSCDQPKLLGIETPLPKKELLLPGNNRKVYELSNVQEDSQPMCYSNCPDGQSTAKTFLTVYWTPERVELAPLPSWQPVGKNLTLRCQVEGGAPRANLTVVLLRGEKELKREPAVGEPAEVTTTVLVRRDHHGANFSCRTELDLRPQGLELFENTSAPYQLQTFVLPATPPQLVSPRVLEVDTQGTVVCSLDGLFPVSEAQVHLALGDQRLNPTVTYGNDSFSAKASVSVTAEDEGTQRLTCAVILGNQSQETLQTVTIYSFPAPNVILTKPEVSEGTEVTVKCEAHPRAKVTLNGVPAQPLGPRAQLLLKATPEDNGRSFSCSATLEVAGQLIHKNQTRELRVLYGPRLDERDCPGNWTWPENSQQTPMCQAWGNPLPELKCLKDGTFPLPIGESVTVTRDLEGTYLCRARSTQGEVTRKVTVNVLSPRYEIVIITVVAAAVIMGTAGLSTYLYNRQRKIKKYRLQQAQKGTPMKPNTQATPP
Procedure: (§2) Fluorescein amidite (FAM)-conjugated DNA aptamers were incubated at 500 nM onto cells cultured in 24-well plates for 4 hours at 37° C. in 5% CO2. At specific timepoints (0.5h, 1h, 2h, 4h), the cell media was aspirated, and the wells were washed three times with 1× selection buffer. To elute and lyse the cells, 200ul of 6M urea was applied to the well and incubated at 37° C. for 5 minutes. The urea-aptamer solution was transferred and measured in a 96-well microplate reader at 495 nm absorbance. Samples were measured in triplicate. FIGS. 23 to 26 show the results.
Maximal binding can be seen after 2 hours, wherein the absolute number of the truncated sequence bound to HNEpC is 2.5 times of the number of the parent aptamer bound. Binding to RH-30 cells is similar for both aptamers, truncated sequence (SEQ ID NO: 244) and parent sequence (SEQ ID NO: 104) and below 500 RFU.

[6] = target: T1, ICAM-1 extracellular domain (C-terminal …); assay: ITC; 37 C, potassium phosphate; 8.86 nM at 33 C; conditions: tags: C-terminal His6; Ray-Biotech 228-21751-2; label: FAM in cell assay; hairpin with dangling 5' and 3' ends
Procedure: as §1

[7] = target: T1, ICAM-1 extracellular domain (C-terminal …); assay: ITC; 37 C, potassium phosphate; 10 nM at 33 C; conditions: tags: C-terminal His6; Ray-Biotech 228-21751-2
Procedure: as §1

[8] = target: T1, ICAM-1 extracellular domain (C-terminal …); assay: ITC; 37 C, potassium phosphate; 37 nM at 33 C (weaker); conditions: tags: C-terminal His6; Ray-Biotech 228-21751-2
Procedure: as §1

ICAM-1 (on cells) [9] = target: T2, ICAM-1 (on cells); assay: HNEpC cells, 0.5 h, 500 nM; RH-30 hardly detectable; conditions: tags: endogenous on HNEpC (PromoCell C-21060) or H1-HeLa cells; label: FAM
Procedure: as §2
Maximal binding of the truncated sequence Nas.D-5 (SEQ ID NO: 245) can be observed after 0.5 hours, wherein more than 2 times of the truncated aptamers bound to HNEpC compared to the parent aptamer. Binding to RH-30 cells was hardly detectable (FIG. 25). […] The absolute number of bound oligonucleotides of the truncated aptamer (SEQ ID NO: 246) is again higher than the number of bound oligonucleotides of the parent sequence (SEQ ID NO: 108).

human serum albumin = human serum albumin (Homo sapiens, UniProt P02768 P02768:25-609); assay: SPR; 250 nM HSA, no significant binding
human serum albumin, sequence (P02768 25-609, one chain of several): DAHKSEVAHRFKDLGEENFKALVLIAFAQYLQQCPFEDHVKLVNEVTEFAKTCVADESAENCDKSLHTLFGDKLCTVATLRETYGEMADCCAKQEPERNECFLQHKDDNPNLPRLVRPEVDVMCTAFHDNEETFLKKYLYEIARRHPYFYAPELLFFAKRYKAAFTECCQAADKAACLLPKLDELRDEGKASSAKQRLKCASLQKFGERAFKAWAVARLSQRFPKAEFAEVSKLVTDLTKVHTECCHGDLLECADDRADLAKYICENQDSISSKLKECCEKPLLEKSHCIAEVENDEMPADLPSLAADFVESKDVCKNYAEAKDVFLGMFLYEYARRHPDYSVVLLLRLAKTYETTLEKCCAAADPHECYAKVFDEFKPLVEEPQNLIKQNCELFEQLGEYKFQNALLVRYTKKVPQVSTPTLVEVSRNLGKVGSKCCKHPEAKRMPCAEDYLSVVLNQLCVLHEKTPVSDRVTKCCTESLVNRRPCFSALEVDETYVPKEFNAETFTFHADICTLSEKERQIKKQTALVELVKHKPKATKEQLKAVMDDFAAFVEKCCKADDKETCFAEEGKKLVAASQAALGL
Procedure: (§3) After conjugation of the cystamine moeities to phosphoramidate bonds at the 5′ phosphate group, the aptamer was immobilized on a gold chip by depositing an aliquot of 10 nL of aptamer solution at a concentration of 10 μM onto the surface of the chip. The gold reduces the cystamine to a pair of thiols and then catalyzes the reduction reaction that results in the covalent bond between the gold surface and the thiol groups of the modified aptamers.
(§4) Solutions of 200 μL of ICAM-1 protein or human serum albumin were flown over the gold chip at a concentration of 250 nM and a flow rate of 50 μL/min using an Openplex Surface Plasmon Resonance System (Horiba, Kyoto, Kyoto, Japan). Thus, the association phase lasted for 4 minutes after injection and was immediately followed by the disassociation phase. The total resonance of the negative control aptamer was subtracted from the total resonance observed for each of the candidate aptamers. The result corresponds to the resonance contribution due to the binding of the protein to the aptamer.

[10] = target: T1, ICAM-1 extracellular domain (C-terminal …); assay: SPR; aptamer immobilized on gold chip; 250 nM ICAM-1; conditions: tags: C-terminal His6; Ray-Biotech 228-21751-2
Procedure: as §3, §4
where Rmax is the maximum resonance due to binding observed, and c is the concentration of the injectant. Finally, the dissociation equilibrium constant kD was calculated as the ratio of kd over ka (see Table 2). The low nanomolar kD values obtained for the different aptamers confirm the strong binding affinity of such molecules towards ICAM-1 and validate the aptamer selection process described in Example 1. As used herein, “kd” refers to the dissociation rate, “ka” refers to the association rate, and “kD” refers to the dissociation equilibrium constant.

ICAM-1 (on cells) [11] = target: T2, ICAM-1 (on cells); assay: HNEpC cells, FAM-RNA 500 nM, 37 C; qPCR binding higher than to HEK293; conditions: tags: endogenous on HNEpC (PromoCell C-21060) or H1-HeLa cells
[12] = target: T1, ICAM-1 extracellular domain (C-terminal …); assay: ITC; 37 C, potassium phosphate; 7.96 nM at 33 C; conditions: tags: C-terminal His6; Ray-Biotech 228-21751-2
Procedure: as §1

T1 sequence (P05362 28-480): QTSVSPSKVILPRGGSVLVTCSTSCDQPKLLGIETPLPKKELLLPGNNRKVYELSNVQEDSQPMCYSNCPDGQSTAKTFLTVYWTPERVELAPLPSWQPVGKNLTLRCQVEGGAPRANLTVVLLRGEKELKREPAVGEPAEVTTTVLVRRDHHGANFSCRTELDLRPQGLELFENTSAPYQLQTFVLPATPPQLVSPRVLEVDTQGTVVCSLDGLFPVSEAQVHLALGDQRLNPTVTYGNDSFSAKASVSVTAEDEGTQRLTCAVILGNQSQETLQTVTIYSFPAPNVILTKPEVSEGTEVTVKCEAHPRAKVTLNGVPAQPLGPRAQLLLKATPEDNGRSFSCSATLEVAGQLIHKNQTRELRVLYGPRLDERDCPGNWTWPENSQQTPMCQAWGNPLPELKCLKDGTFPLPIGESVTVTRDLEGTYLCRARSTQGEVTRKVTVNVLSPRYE

GTGCTCAGTTGTCAATCTAAGACTGCTGCTGAGGAAG (ssDNA) [NasD-4.1 State 6] gave a Kd [1] of 18.6 nM.

For GTGGTCAGTTGTGAATCTATGACTGCTGCTGAGGAAG (ssDNA) [NasD-4.1 State 1], the Kd [2] was 2.83 nM.

GTGCTCAGTTGTCAAAGAATGACTGCTGCTGAGGAAG (ssDNA) [NasD-4.1 State 7] was tested, and the Kd [3] was 6.77 nM.

Work on GTGCTCACTTGTCAATCTATGACTGCTGCTCAGGAAG (ssDNA) [NasD-4.1 State 3] yielded a Kd [4] of 40.4 nM.

GTGCTCAGTTGTCAATCTATGACTGCTGCTGAGGAAG (ssDNA) [Nas.D-4.1] showed a binding signal (ICAM-1 (on cells) [5]) of 2.5 fold vs parent Nas.D-4 and a Kd [6] of 11.2 nM.

GAGCTCAGTTGTCAATCTATGACTGCTGCTGAGGAAG (ssDNA) [NasD-4.1 State 2] showed a Kd [7] of 102 nM.

Binder GTGCTCACTTGTCAATCTATGACTGCTGCTGAGTAAG (ssDNA) [NasD-4.1 State 4] has a Kd [8] of 6.39 nM.

GGGCGCACCGTTTACGCGTAAATCGGTCCGCTATT (ssDNA) [Nas.D-5.1] was tested, and the binding signal (ICAM-1 (on cells) [9]) was greater than 2 fold vs parent Nas.D-5.

B1: Nas.R-1 (ssRNA)
RNA: GGGUGCAUCGUUUACGCGAUUAGUCUGAUAAACAAAAAGAUUUCGCUAAAAAUCAAUCUGCUGCUGAGGAAGGAUAUGAG
modifications: 2'-F pyrimidines (all C and U)
For B1, the binding result (human serum albumin) was “no binding” and the Kd [10] was 64.4 nM.

B2: Nas.R-2 (ssRNA)
RNA: GGGUGCAUCGUUUACGCAGAUAGCAGCAGGAAUCAAGCGGUAGGAGUCUAGCAGAAGCUGCUGCUGAGGAAGGAUAUGAG
modifications: 2'-F pyrimidines (all C and U)
B2 was tested, and the binding signal (ICAM-1 (on cells) [11]) was 17 % surface bound, the binding result (human serum albumin) was “no binding” and the Kd [10] was 70.2 nM.

GTGCTCTCTTGTCAATCTATGACTGCTGGAGAGGAAG (ssDNA) [NasD-4.1 State 5] was tested, and the Kd [12] was 5.14 nM.

B3: Nas.R-4 (ssRNA)
RNA: GGGUGCAUCGUUUACGCGCAACAUAAAAAUUUAAAGUGCUCAGUUGUCAAUCUAUGACUGCUGCUGAGGAAGGAUAUGAG
modifications: 2'-F pyrimidines (all C and U)
With B3 the binding signal (ICAM-1 (on cells) [11]) was 11 % surface bound, the binding result (human serum albumin) was “no binding” and the Kd [10] was 44.3 nM.

B4: Nas.R-8 (ssRNA)
RNA: GGGUGCAUCGUUUACGCGUAAAAAUUAAAGAGAUUAAGGUCCUUAAGCAGUUUUGUCCUGCUGCUGAGGAAGGAUAUGAG
modifications: 2'-F pyrimidines (all C and U)
With B4 the binding signal (ICAM-1 (on cells) [11]) was 12 % surface bound, the binding result (human serum albumin) was “no binding” and the Kd [10] was 28.4 nM.
